Data as given in PMC1409677.

Target: human alpha-thrombin (Homo sapiens, UniProt P00734;P00734 328-363;364-622)
Experiment: FRET

Binder: TAAGTTCATCTCGGTTGGTGTGGTTGG (structured_DNA) [APT (thrombin aptamer with 12 nt 5' toehold)]
- binding result: binds
